Source: publication PMC9596428

Experiments:
[1] = molecular target: mVenus-tagged CaMKIIα holoenzyme (mVenus-mCaMKIIα), wild type (mouse) (UniProt P11798); test: FRET or BRET; in vitro time-lapse binary-FRET (mVenus lifetime for hetero-FRET to mCherry, anisotropy for homo-FRET); V-CaMKII homogenate (15-20 nM holoenzyme) with 10 µM purified NR2B fragment in 1x kinase buffer, 1 mM DTT, 1 mM CaCl2, 1 mM ATP, 1 mM MgCl2, 5 µM calmodulin; room temperature; followed over 3 h
[2] = molecular target: mVenus-tagged CaMKIIα K42R mutant holoenzyme (mouse) (UniProt P11798); test: as above

Substance: mCherry-tagged NR2B binding fragment (6His-mCherry-Flag-NR2B 1265-1320) (from UniProt Q13224 1265-1320) (domain or fragment)
- hetero-FRET efficiency [1]: 11.9%
- hetero-FRET efficiency [2]: 12.6%
